Article PMC10052518

Key:
[1] = biological target: hFcRn (human neonatal Fc receptor) (human) (UniProt P55899); assay: SPR; Bia3000; hFcRn immobilised on CM5 chip (<200 RU); increasing concentrations of antibody injected over 180 s, dissociation 400 s; 25 °C; 50 mM phosphate, 150 mM NaCl, 0.05% P20, pH 7; multi-cycle kinetics, bivalent model fit
[2] = biological target: hFcRn (human neonatal Fc receptor) (human) (UniProt P55899); assay: SPR; Bia3000; hFcRn immobilised on CM5 chip (<200 RU); increasing concentrations of antibody injected over 180 s, dissociation 400 s; 25 °C; 50 mM phosphate, 150 mM NaCl, 0.05% P20, pH 6; multi-cycle kinetics, bivalent model fit
[3] = biological target: hFcRn (human neonatal Fc receptor) (human) (UniProt P55899); assay: SPR; bivalent fit, kd2 (second site)
[4] = biological target: hFcRn (human neonatal Fc receptor) (human) (UniProt P55899); assay: SPR; bivalent fit, kd1
[5] = biological target: hFcRn (human neonatal Fc receptor) (human) (UniProt P55899); assay: SPR; pH 7.0, bivalent fit, kd1

Sequence of UniProt P55899 (P55899 24-297, chain 1 of 2): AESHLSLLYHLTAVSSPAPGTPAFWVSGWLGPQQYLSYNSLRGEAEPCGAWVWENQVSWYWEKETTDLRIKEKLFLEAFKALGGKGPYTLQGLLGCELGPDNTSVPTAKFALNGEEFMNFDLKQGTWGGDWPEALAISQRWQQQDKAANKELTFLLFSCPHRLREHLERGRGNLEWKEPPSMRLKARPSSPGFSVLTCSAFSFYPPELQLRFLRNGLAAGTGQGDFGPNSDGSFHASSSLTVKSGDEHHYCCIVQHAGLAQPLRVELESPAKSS
Sequence of UniProt P55899 (P61769 21-119, chain 2 of 2, further chain): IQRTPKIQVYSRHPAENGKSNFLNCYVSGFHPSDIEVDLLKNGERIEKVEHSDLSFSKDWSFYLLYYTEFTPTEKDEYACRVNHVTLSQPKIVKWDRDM

Substance	Kd [1] [nM]	Kd [2] [nM]	koff [3] [s⁻¹]	koff [4] [s⁻¹]	further results
C7 (tocilizumab variant T256E/N286H/K288E/V308P/L309D/N434Y/Y436K) (antibody)	160	34	–	–	–
B5 (tocilizumab variant T256Y/H285Q/N286D/V308A/N434Y)	–	–	0.000765	0.0439	–
T8 (tocilizumab variant M252Y/N286E/T307Q/V308P/Q311A/N434Y/Y436V)	–	–	0.0383	0.000658	–
Tocilizumab (antibody)	–	380	–	–	–
A3 (tocilizumab variant M252W/M428K/N434W) (antibody)	570	–	–	–	–
T3 (tocilizumab variant M252Y/T307D/N434Y)	–	–	–	–	koff [5]: 0.0263 s⁻¹
T8 (tocilizumab variant M252Y/N286E/T307Q/V308P/Q311A/N434Y/Y436V) (antibody)	7.8	1.3	–	–	–
C7 (tocilizumab variant T256E/N286H/K288E/V308P/L309D/N434Y/Y436K)	–	–	6.52e-05	0.0053	–
B5 (tocilizumab variant T256Y/H285Q/N286D/V308A/N434Y) (antibody)	620	45	–	–	–
T3 (tocilizumab variant M252Y/T307D/N434Y) (antibody)	380	13	–	–	–
